Patent US20260139033A1 (PRANA THERAPIES, published 2026)

Tests used:
[1] = molecular target: IL-4R on human donor PBMC (B-cells) (human, UniProt P24394 26-825); test: cell-based or functional assay
recombinant human TSLP [2] = molecular target: T1, recombinant human TSLP (human, UniProt Q969D9 29-159); test: SPR (Biacore 3000, CM5 chip, 25 C): complex captured via protein A, TSLP as analyte, 1:1 fit; column 'TSLP binding(pM)'
T1 construct: also called thymic stromal lymphopoietin
Protocol: (§1) SPR studies were carried out on a Biacore 3000 instrument with a CM5 chip at 25° C. The running buffer comprised 25 mM Hepes, pH 7.5, 150 mM NaCl, 0.5 mg/ml BSA, 0.005% P20. Antibodies were captured via protein A using approximately a 1/50 dilution of each antibody in the running buffer and a 2-minute contact time at a 10 μl/min flow rate. Protein A was immobilized on a CM5 chip via standard amine coupling chemistry in 10 mM acetate pH 4.5. Approximately 800 RU of each antibody was captured. The surfaces were regenerated via a 10 mM glycine pH 1.5 between cycles. Between assays the chip was regenerated with a 2-minute pulse of 100 mM Phosphoric acid. Prior to setting up multicycle kinetic analysis analyte concentration was determined spectrophotometrically using an extinction coefficient of 72,880 M⁻¹ cm⁻¹ for IL4R and 18450 M⁻¹ cm⁻¹ for the TSLP proteins respectively. Analyte samples were prepared by diluting stocks into running buffer to a final concentration of 500 nM for the IL-4R and 25 nM for TSLP followed by serially diluting with a 2-fold series with an association time of 2.5 minutes at a 50 μl/min flow rate. Dissociation data was collected for a period of 1600 seconds. Raw data was analyzed using the Scrubber2 (Biologic Software, AU) program using a double referencing procedure where compound signal is corrected to a blank surface and a buffer injection over the captured antibody surface. Kinetic data was analyzed by fitting to a simple 1:1 binding model. […] The candidates are further described in Table 3.

recombinant human TSLP [3] = molecular target: T1, recombinant human TSLP; test: cell-based or functional assay
recombinant human TSLP [4] = molecular target: T1, recombinant human TSLP; test: SPR; column 'SPR (Biophysical binding): TSLP (pM)'
Protocol: as §1

B1: Candidate-42: Heavy and Light chain C-terminal TRAP: Dupilumab-YTE_Linker-GS4_TSLP TRAP 2 [4 x TRAP 2] (bispecific antibody, human IgG4 S228P, kappa)
heavy: EVQLVESGGGLEQPGGSLRLSCAGSGFTFRDYAMTWVRQAPGKGLEWVSSISGSGGNTYYADSVKGRFTISRDNSKNTLYLQMNSLRAEDTAVYYCAKDRLSITIRPRYYGLDVWGQGTTVTVSSASTKGPSVFPLAPCSRSTSESTAALGCLVKDYFPEPVTVSWNSGALTSGVHTFPAVLQSSGLYSLSSVVTVPSSSLGTKTYTCNVDHKPSNTKVDKRVESKYGPPCPPCPAPEFLGGPSVFLFPPKPKDTLYITREPEVTCVVVDVSQEDPEVQFNWYVDGVEVHNAKTKPREEQFNSTYRVVSVLTVLHQDWLNGKEYKCKVSNKGLPSSIEKTISKAKGQPREPQVYTLPPSQEEMTKNQVSLTCLVKGFYPSDIAVEWESNGQPENNYKTTPPVLDSDGSFFLYSRLTVDKSRWQEGNVFSCSVMHEALHNHYTQKSLSLSLGGGGGSGGGGSGGGGSGGGGSESGYAQNGDLEDAELDDYSFSCYSQLEVNGSQHSLTCAFEDPDVNITNLEFEICGALVEVKCLNFRKLQEIYFIETKKFLLIGKSNICVKVGEKSLTCKKIDLTTIVKPEAPFDLSVVYREGANDFVVTFNTSHLQKKYVKVLMHDVAYRQEKDENKWTHVNLSSTKLTLLQRKLQPAAMYEIKVRSIPDHYFKGFWSEWSPSYYFRTPEINNSSGEMDGGSGGSGGSGGSGGSGGSGGSGGSGGSGGSGGSGGSGGSGGSGGSGGSGGSGGSGGSGGSGAAEGVQIQIIYFNLETVQVTWNASKYSRTNLTFHYRFNGDEAYDQCTNYLLQEGHTSGCLLDAEQRDDILYFSIRNGTHPVFTASRWMVYYLKPSSPKHVRFSWHQDAVTVTCSDLSYGDLLYEVQYRSPFDTEWQSKQENTCNVTIEGLDAEKCYSFWVRVKAMEDVYGPDTYPSDWSEVTCWQRGEIRDACAETPTPPKPKLSK
light: DIVMTQSPLSLPVTPGEPASISCRSSQSLLYSIGYNYLDWYLQKSGQSPQLLIYLGSNRASGVPDRFSGSGSGTDFTLKISRVEAEDVGFYYCMQALQTPYTFGQGTKLEIKRTVAAPSVFIFPPSDEQLKSGTASVVCLLNNFYPREAKVQWKVDNALQSGNSQESVTEQDSKDSTYSLSSTLTLSKADYEKHKVYACEVTHQGLSSPVTKSFNRGECGGGGSGGGGSGGGGSGGGGSESGYAQNGDLEDAELDDYSFSCYSQLEVNGSQHSLTCAFEDPDVNITNLEFEICGALVEVKCLNFRKLQEIYFIETKKFLLIGKSNICVKVGEKSLTCKKIDLTTIVKPEAPFDLSVVYREGANDFVVTFNTSHLQKKYVKVLMHDVAYRQEKDENKWTHVNLSSTKLTLLQRKLQPAAMYEIKVRSIPDHYFKGFWSEWSPSYYFRTPEINNSSGEMDGGSGGSGGSGGSGGSGGSGGSGGSGGSGGSGGSGGSGGSGGSGGSGGSGGSGGSGGSGGSGAAEGVQIQIIYFNLETVQVTWNASKYSRTNLTFHYRFNGDEAYDQCTNYLLQEGHTSGCLLDAEQRDDILYFSIRNGTHPVFTASRWMVYYLKPSSPKHVRFSWHQDAVTVTCSDLSYGDLLYEVQYRSPFDTEWQSKQENTCNVTIEGLDAEKCYSFWVRVKAMEDVYGPDTYPSDWSEVTCWQRGEIRDACAETPTPPKPKLSK
notes: The chains here are built from the component entries
For B1, the “IC50, CD23 upregulation on B cells of human PBMC in response to IL-4 (column 'Biological Assays: IL-4R (nM)')” value [1] was greater than 200 nM, the Kd (recombinant human TSLP [2]) was 0.0162 nM and the “IC50, inhibition of TSLP responses (TARC secretion) in human PBMCs” value (recombinant human TSLP [3]) was 2.37 nM. For the same binder, the Kd (recombinant human TSLP [4]) was 0.0162 nM.
